Substrate in the series: CC[C@H](C)[C@H](NC(=O)[C@H](CC(=O)O)NC(=O)[C@@H](N)CC(=O)O)C(=O)N[C@H](C(=O)N1CCC[C@H]1C(=O)N[C@@H](CS)C(=O)O)C(C)C
Put plainly: Km against NS3-4Apep protease determined by non-linear regression analysis of the velocity data. It counts as protein-complex assay. As to conditions: Hepacivirus hominis.

B1: Hepatitis C virus serine protease, NS3/NS4A (Hepatitis C virus), D2K2A8+A3EZI9 (protein)
chain 1: STWVLLGGVLAALAAYCLSVGCVVIVGYIELGGKPALVPDKEVCYQQYDEMEEC
chain 2: APITAYAQQTRGLLGCIITSLTGRDKNQVEGEVQIVSTAAQTFLATCINGVCWTVYHGAGTRTIASSKGPVIQMYTNVDQDLVGWPAPQGARSLTPCTCGSSDLYLVTRHADVIPVRRRGDGRGSLLSPRPISYLKGSSGGPLLCPAGHAVGIFRAAVCTRGVAKAVDFIPVEGLETTMRSPVFSDNSSPPAVPQSYQVAHLHAPTGSGKSTKVPAAYAAQGYKVLVLNPSVAATLGFGAYMSKAHGIDPNIRTGVRTITTGSPITYSTYGKFLADGGCSGGAYDIIICDECHSTDATSILGIGTVLDQAETAGARLTVLATATPPGSVTVPHPNIEEVALSTTGEIPFYGKAIPLEAIKGGRHLIFCHSKKKCDELAAKLVALGVNAVAYYRGLDVSVIPASGDVVVVATDALMTGFTGDFDSVIDCNTCVTQTVDFSLDPTFTIETTTLPQDAVSRTQRRGRTGRGKPGIYRFVTPGERPSGMFDSSVLCECYDAGCAWYELTPAETTVRLRAYMNTPGLPVCQDHLEFWEGVFTGLTHIDAHFLSQTKQSGENLPYLVAYQATVCARAQAPPPSWDQMWKCLIRLKPTLHGPTPLLYRLGAVQNEITLTHPITKYIMTCMSADLEVVT
Take B1: the Km (usually the substrate concentration at which the rate is half of its maximum) is 37 µM.

The record behind these values is ChEMBL document CHEMBL1130869, “Peptide-based inhibitors of the hepatitis C virus serine protease” (Bioorg Med Chem Lett, 1998).
